The source of these data is PMC6433275 (Nature structural & molecular biology, 2019).

The assay deals with T1, E. coli MukB (E. coli, UniProt P22523 1-1486).
T1 sequence: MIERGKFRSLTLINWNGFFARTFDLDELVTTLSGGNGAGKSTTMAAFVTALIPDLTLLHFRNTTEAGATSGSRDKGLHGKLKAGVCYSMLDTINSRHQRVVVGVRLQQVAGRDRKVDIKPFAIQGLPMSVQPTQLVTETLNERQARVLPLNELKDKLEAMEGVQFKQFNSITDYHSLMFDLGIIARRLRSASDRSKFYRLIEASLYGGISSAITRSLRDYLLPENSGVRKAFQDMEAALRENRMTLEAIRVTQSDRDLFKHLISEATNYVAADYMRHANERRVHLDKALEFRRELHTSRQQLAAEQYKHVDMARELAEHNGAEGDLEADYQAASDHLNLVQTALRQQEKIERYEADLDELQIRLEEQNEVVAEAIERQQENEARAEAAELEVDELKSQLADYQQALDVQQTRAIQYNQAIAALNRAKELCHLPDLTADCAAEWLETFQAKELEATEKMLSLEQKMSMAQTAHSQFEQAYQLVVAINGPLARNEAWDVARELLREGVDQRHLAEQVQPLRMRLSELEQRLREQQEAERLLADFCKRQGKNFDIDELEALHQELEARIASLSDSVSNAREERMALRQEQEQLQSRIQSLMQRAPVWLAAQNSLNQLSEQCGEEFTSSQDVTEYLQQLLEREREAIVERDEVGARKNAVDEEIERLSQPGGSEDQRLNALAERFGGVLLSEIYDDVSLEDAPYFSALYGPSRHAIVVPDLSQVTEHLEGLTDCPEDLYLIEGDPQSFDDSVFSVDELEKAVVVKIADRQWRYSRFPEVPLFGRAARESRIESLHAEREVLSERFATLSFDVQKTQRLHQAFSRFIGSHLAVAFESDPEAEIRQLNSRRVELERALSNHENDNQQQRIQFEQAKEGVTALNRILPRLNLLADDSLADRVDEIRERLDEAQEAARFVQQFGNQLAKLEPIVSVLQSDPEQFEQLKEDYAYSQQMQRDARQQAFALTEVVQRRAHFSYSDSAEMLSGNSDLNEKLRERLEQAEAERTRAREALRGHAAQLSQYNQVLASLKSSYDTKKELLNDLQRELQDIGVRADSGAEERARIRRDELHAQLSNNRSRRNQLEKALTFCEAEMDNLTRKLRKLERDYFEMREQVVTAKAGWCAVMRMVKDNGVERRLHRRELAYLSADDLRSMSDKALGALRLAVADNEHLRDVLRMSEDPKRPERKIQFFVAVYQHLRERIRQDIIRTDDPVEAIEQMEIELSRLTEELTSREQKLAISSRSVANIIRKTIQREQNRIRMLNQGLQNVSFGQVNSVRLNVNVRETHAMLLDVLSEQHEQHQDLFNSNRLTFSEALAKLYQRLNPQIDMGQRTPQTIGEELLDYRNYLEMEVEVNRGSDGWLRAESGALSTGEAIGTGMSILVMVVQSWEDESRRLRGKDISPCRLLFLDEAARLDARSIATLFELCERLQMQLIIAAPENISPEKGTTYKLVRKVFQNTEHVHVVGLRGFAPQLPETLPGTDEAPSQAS
The experiment in a line: SEC.

B1: E. coli MukEF complex (complex)
chain 1: MSSTNIEQVMPVKLAQALANPLFPALDSALRSGRHIGLDELDNHAFLMDFQEYLEEFYARYNVELIRAPEGFFYLRPRSTTLIPRSVLSELDMMVGKILCYLYLSPERLANEGIFTQQELYDELLTLADEAKLLKLVNNRSTGSDVDRQKLQEKVRSSLNRLRRLGMVWFMGHDSSKFRITESVFRFGADVRAGDDPREAQRRLIRDGEAMPIENHLQLNDETEENQPDSGEEE
chain 2: MSEFSQTVPELVAWARKNDFSISLPVDRLSFLLAVATLNGERLDGEMSEGELVDAFRHVSDAFEQTSETIGVRANNAINDMVRQRLLNRFTSEQAEGNAIYRLTPLGIGITDYYIRQREFSTLRLSMQLSIVAGELKRAADAAEEGGDEFHWHRNVYAPLKYSVAEIFDSIDLTQRLMDEQQQQVKDDIAQLLNKDWRAAISSCELLLSETSGTLRELQDTLEAAGDKLQANLLRIQDATMTHDDLHFVDRLVFDLQSKLDRIISWGQQSIDLWIGYDRHVHKFIRTAIDMDKNRVFAQRLRQSVQTYFDEPWALTYANADRLLDMRDEEMALRDEEVTGELPEDLEYEEFNEIREQLAAIIEEQLAVYKTRQVPLDLGLVVREYLSQYPRARHFDVARIVIDQAVRLGVAQADFTGLPAKWQPINDYGAKVQAHVIDKY
Regarding B1, the binding result is “binds”.
